Results from paper doi:10.1101/2023.07.24.550339 (bioRxiv, 2023).
One block for each binder: values may come before it.

Experiments:
Rac1Q61L, recombinant = Rac1Q61L, recombinant (human, UniProt P63000 1-192, Q61L); experiment: ITC
SAXS = molecular target: the molecule itself; experiment: SAXS
[1] = molecular target: Rab35BD (MiniBAR225-553), recombinant (human, UniProt O15063 225-553); experiment: ITC
SEC-MALS = molecular target: the molecule itself; experiment: SEC-MALS

- Kd (Rac1Q61L, recombinant): ~200 nM
B1: Rac1BD-Rab35BD (MiniBAR70-553), recombinant (domain or fragment)
chain: not shown
- stoichiometry N (SAXS): 2

- Kd [1]: ~2000 nM
B2: Rab35-GPPNHP, recombinant (natural protein)
chain: not shown

B3: Rac1BD (MiniBAR70-208), recombinant (domain or fragment)
chain: not shown
- stoichiometry N (SEC-MALS): 2
